Results reported in patent US10471162B2, “Collagen targeted imaging probes” (priority 2014, dated 2019).

Key:
in vivo [1] = experiment: in vivo; set-up: species or system mouse; settings: male, C57Bl/6, mouse, iv, total radioactivity, Biodistribution % ID/lung
Procedure: (§1) Adult male C57Bl/6 mice were administered a single intratracheal dose of low dose bleomycin at 0.1 U/kg (low dose), in a total volume of 50 μl sterile saline. FTY720 was administered intraperitoneally to the mice at 1 mg/kg three times a week. To effect treatment in the low dose bleomycin, vascular leak model, the therapeutic murine antibody 3G9 (alpha-v-beta6 blocking antibody) and 1E6 (matched isotype control antibody) were used. Antibodies were injected into mice intraperitoneally three times week at a concentration of 1 mg/kg. All administrations of FTY720 and antibodies were initiated on day 0, ˜30 minutes before bleomycin challenge and continued throughout the duration of the experiments. […] The tissues were weighed, and radioactivity in each tissue was measured on a gamma counter (CobraII Auto gamma; Packard). The radioactivity in the lung was reported as percent injected dose per gram corrected with the average sham weight, which was calculated by dividing the counts of ^64Cu per average sham tissue weight in gram by the total of counts of the injected dose. The radioactivity in every other tissue was reported as percent injected dose per gram (% ID/g), which was calculated by dividing the counts of ^64Cu per gram of tissue by the total of counts of the injected dose. […] Uncertainties are expressed as the standard error of the mean.

[2] = system: pulmonary fibrosis, low dose bleomycin, vascular leak model; experiment: in vivo; set-up: species or system mouse; settings: mouse
Procedure: as §1

in vivo [3] = format: in vivo, mouse; settings: male, C57/BL6, mouse, in vivo, iv, total radioactivity, Biodistribution % ID/g
Procedure: (§2) Pulmonary fibrosis was induced in 7-8-week-old male C57/BL6 mice by transtracheal administration of bleomycin (BM; 2.5 U/kg) in 50 μL of PBS under direct vision using a small cervical incision. Sham animals received only PBS. Animals were placed in a small-animal PET/SPECT/CT scanner (Triumph; TriFoil Imaging), equipped with inhalation anesthesia and heating pad. Each animal was anesthetized with isoflurane (4% for induction, 2-2.5% for maintenance in medical air) and body temperature was kept at 37-38° C. using a heating pad. The femoral vein was cannulated for intravenous delivery of the PET agent. Each mouse was injected with approximately 0.1 mL and 20-50 μCi of ^64Cu-CBP(n), 0.1 mL and 20-50 μCi of ^68Ga-CBP(n) and 0.1 mL and 10-20 μCi of Al^18F-CBP(n) in a 18 mM solution of sucrose in water, followed by saline flush. […] The lungs, blood, urine, heart, liver, left rectus femoris muscle, spleen, small intestine, kidneys, left femur bone were collected from all animals. The tissues were weighed, and radioactivity in each tissue was measured on a gamma counter (CobraII Auto gamma; Packard). The radioactivity in the lung was reported as percent injected dose per gram corrected with the average sham weight, which was calculated by dividing the counts of ^64Cu per average sham tissue weight in gram by the total of counts of the injected dose. The radioactivity in every other tissue was reported as percent injected dose per gram (% ID/g), which was calculated by dividing the counts of ^64Cu per gram of tissue by the total of counts of the injected dose. A p-value of less than 0.05 was considered significant. Uncertainties are expressed as the standard error of the mean.

[4] = system: pulmonary fibrosis, C57/BL6 mice (bleomycin or sham); experiment: in vivo; format: in vivo, mouse; settings: male, C57/BL6, mouse, in vivo, iv, 2.5 h
Procedure: as §2

CC(C)C[C@H](NC(=O)[C@@H]1CSSC[C@H](NC(=O)[C@H](Cc2c[nH]cn2)NC(=O)[C@H](Cc2c[nH]c3ccccc23)NC(=O)[C@H](CCCCNC(=O)CNC(=O)CCC(C(=O)O)N2CCN(CC(=O)O)CCN(CC(=O)O)CC2)NC(=O)CNC(=O)CCC(C(=O)O)N2CCN(CC(=O)O)CCN(CC(=O)O)CC2)C(=O)N[C@@H]([C@@H](C)O)C(=O)N[C@@H]([C@@H](C)O)C(=O)N[C@@H](CCCCNC(=O)CCC(C(=O)O)N2CCN(CC(=O)O)CCN(CC(=O)O)CC2)C(=O)N[C@@H](Cc2ccccc2)C(=O)N2CCC[C@H]2C(=O)N[C@@H](Cc2c[nH]cn2)C(=O)N[C@@H](Cc2c[nH]cn2)C(=O)N[C@@H](Cc2ccc(O)cc2)C(=O)N1)C(=O)N[C@@H](Cc1ccc(O)cc1)C(=O)N[C@@H](Cc1ccc(-c2ccccc2)cc1)C(N)=O (single isomer, unassigned) [CBP8]
tissue uptake dose at 2.5 h (in vivo [1]): 0.043 ± 0.001 %ID
organ uptake between groups, except lungs, in words [2]: not significantly different
tissue uptake at 2.5 h (in vivo [3]; blood): 0.512 ± 0.181 %ID/g
tissue uptake at 2.5 h (in vivo [3]; bone): 1.11 ± 0.594 %ID/g
tissue uptake at 2.5 h (in vivo [3]; heart): 0.242 ± 0.059 %ID/g
tissue uptake at 2.5 h (in vivo [3]; kidney): 30 ± 4.59 %ID/g
tissue uptake at 2.5 h (in vivo [3]; liver): 0.95 ± 0.127 %ID/g
tissue uptake at 2.5 h (in vivo [3]; muscle): 0.567 ± 0.247 %ID/g
tissue uptake at 2.5 h (in vivo [3]; sm. intestine): 0.42 ± 0.086 %ID/g
tissue uptake at 2.5 h (in vivo [3]; spleen): 0.462 ± 0.047 %ID/g
Biodistribution % ID/g, blood [4]: 0.569 ± 0.102 % ID/g
Biodistribution % ID/g, bone [4]: 1.117 ± 0.347 % ID/g
Biodistribution % ID/g, heart [4]: 0.340 ± 0.032 % ID/g
Biodistribution % ID/g, kidney [4]: 41.063 ± 5.830 % ID/g
Biodistribution % ID/g, liver [4]: 1.189 ± 0.113 % ID/g
Biodistribution % ID/g, muscle [4]: 0.927 ± 0.422 % ID/g
Biodistribution % ID/g, sm. intestine [4]: 0.830 ± 0.197 % ID/g
Biodistribution % ID/g, spleen [4]: 0.659 ± 0.141 % ID/g
